± gives the standard deviation of the averaged measurements.
What was measured:
MCF7 = assay: percentage of EdU-negative (G0-arrested) nuclei per well, 72 h; higher = more G0 arrest; details: reference: sequence is the full UniProt precursor, the tested protein was the secreted form or ectodomain
hTERT-HMEC = assay: as above; details: reference: sequence is the full UniProt precursor, the tested protein was the secreted form or ectodomain
[1] = protein concentration 0.0165825 µM
[2] = protein concentration 0.165825 µM
[3] = protein concentration 0.0225 µM
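Also: secreted proteins added to cultured cells, EdU pulse at the end, nuclei found by Hoechst imaging, EdU status from nuclear versus surrounding ring intensity ratio, PBS as neutral control.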

## MSGGHQLQLAALWPWLLMATLQAGFGRTGLVLAAAVESERSAEQKAIIRVIPLKMDPTGKLNLTLEGVFAGVAEITPAEGKLMQSHPLYLCNASDDDNLEPGFISIVKLESPRRAPRPCLSLASKARMAGERGASAVLFDITEDRAAAEQLQQPLGLTWPVVLIWGNDAEKLMEFVYKNQKAHVRIELKEPPAWPDYDVWILMTVVGTIFVIILASVLRIRCRPRHSRPDPLQQRTAWAISQLATRRYQASCRQARGEWPDSGSSCSSAPVCAICLEEFSEGQELRVISCLHEFHRNCVDPWLHQHRTCPLCMFNITEGDSFSQSLGPSRSYQEPGRRLHLIRQHPGHAHYHLPAAYLLGPSRSAVARPPRPGPFLPSQEPGMGPRHHRFPRAAHPRAPGEQQRLAGAQHPYAQGWGLSHLQSTSQHPAACPVPLRRARPPDSSGSGESYCTERSGYLADGPASDSSSGPCHGSSSDSVVNCTDISLQGVHGSSSTFCSSLSSDFDPLVYCSPKGDPQRVDMQPSVTSRPRSLDSVVPTGETQVSSHVHYHRHRHHHYKKRFQWHGRKPGPETGVPQSRPPIPRTQPQPEPPSPDQQVTRSNSAAPSGRLSNPQCPRALPEPAPGPVDASSICPSTSSLFNLQKSSLSARHPQRKRRGGPSEPTPGSRPQDATVHPACQIFPHYTPSVAYPWSPEAHPLICGPPGLDKRLLPETPGPCYSNSQPVWLCLTPRQPLEPHPPGEGPSEWSSDTAEGRPCPYPHCQVLSAQPGSEEELEELCEQAV [Q68DV7]
MCF7; protein concentration 0.032 µM
  percentage of EdU-negative: 24.9 ± 1%
MCF7; protein concentration 0.32 µM
  percentage of EdU-negative: 23.5 ± 1.3%
hTERT-HMEC; protein concentration 0.032 µM
  percentage of EdU-negative: 4.69 ± 0.58%
hTERT-HMEC; protein concentration 0.32 µM
  percentage of EdU-negative: 4.96 ± 0.2%

## MKGLAAALLVLVCTMALCSCAQVGTNKELCCLVYTSWQIPQKFIVDYSETSPQCPKPGVILLTKRGRQICADPNKKWVQKYISDLKLNA
MCF7; [1]
  percentage of EdU-negative: 26.2 ± 1.5%
MCF7; [2]
  percentage of EdU-negative: 24.6 ± 2.4%
hTERT-HMEC; [1]
  percentage of EdU-negative: 5.34 ± 1.1%
hTERT-HMEC; [2]
  percentage of EdU-negative: 5.89 ± 1.1%

## MKFSPAHYLLPLLPALVLSTRQDYEELEKQLKEVFKERSTILRQLTKTSRELDGIKVNLQSLKNDEQSAKTDVQKLLELGQKQREEMKSLQEALQNQLKETSEKAEKHQATINFLKTEVERKSKMIRDLQNENKSLKNKLLSGNKLCGIHAEESKKIQAQLKELRYGKKDLLFKAQQLTDLEQKLAVAKNELEKAALDRESQMKAMKETVQLCLTSVFRDQPPPPLSLITSNPTRMLLPPRNIASKLPDAAAKSKPQQSASGNNESSQVESTKEGNPSTTACDSQDEGRPCSMKHKESPPSNATAETEPIPQKLQMPPCSECEVKKAPEKPLTSFEGMAAREEKIL [Q86TE4]
MCF7; [3]
  percentage of EdU-negative: 26 ± 0.38%
MCF7; protein concentration 0.225 µM
  percentage of EdU-negative: 30.1 ± 1.1%
hTERT-HMEC; [3]
  percentage of EdU-negative: 5.34 ± 0.34%
hTERT-HMEC; protein concentration 0.225 µM
  percentage of EdU-negative: 8.84 ± 1.3%

## MDRGTLPLAVALLLASCSLSPTSLAETVHCDLQPVGPERGEVTYTTSQVSKGCVAQAPNAILEVHVLFLEFPTGPSQLELTLQASKQNGTWPREVLLVLSVNSSVFLHLQALGIPLHLAYNSSLVTFQEPPGVNTTELPSFPKTQILEWAAERGPITSAAELNDPQSILLRLGQAQGSLSFCMLEASQDMGRTLEWRPRTPALVRGCHLEGVAGHKEAHILRVLPGHSAGPRTVTVKVELSCAPGDLDAVLILQGPPYVSWLIDANHNMQIWTTGEYSFKIFPEKNIRGFKLPDTPQGLLGEARMLNASIVASFVELPLASIVSLHASSCGGRLQTSPAPIQTTPPKDTCSPELLMSLIQTKCADDAMTLVLKKELVAHLKCTITGLTFWDPSCEAEDRGDKFVLRSAYSSCGMQVSASMISNEAVVNILSSSSPQRKKVHCLNMDSLSFQLGLYLSPHFLQASNTIEPGQQSFVQVRVSPSVSEFLLQLDSCHLDLGPEGGTVELIQGRAAKGNCVSLLSPSPEGDPRFSFLLHFYTVPIPKTGTLSCTVALRPKTGSQDQEVHRTVFMRLNIISPDLSGCTSKGLVLPAVLGITFGAFLIGALLTAALWYIYSHTRSPSKREPVVAVAAPASSESSSTNHSIGSTQSTPCSTSSMA
MCF7; [3]
  percentage of EdU-negative: 25.3 ± 2.4%
MCF7; protein concentration 0.225 µM
  percentage of EdU-negative: 27.3 ± 2.9%
hTERT-HMEC; [3]
  percentage of EdU-negative: 4.75 ± 0.063%
hTERT-HMEC; protein concentration 0.225 µM
  percentage of EdU-negative: 5.33 ± 0.45%

## MLRGISQLPAVATMSWVLLPVLWLIVQTQAIAIKQTPELTLHEIVCPKKLHILHKREIKNNQTEKHGKEERYEPEVQYQMILNGEEIILSLQKTKHLLGPDYTETLYSPRGEEITTKPENMEHCYYKGNILNEKNSVASISTCDGLRGYFTHHHQRYQIKPLKSTDEKEHAVFTSNQEEQDPANHTCGVKSTDGKQGPIRISRSLKSPEKEDFLRAQKYIDLYLVLDNAFYKNYNENLTLIRSFVFDVMNLLNVIYNTIDVQVALVGMEIWSDGDKIKVVPSASTTFDNFLRWHSSNLGKKIHDHAQLLSGISFNNRRVGLAASNSLCSPSSVAVIEAKKKNNVALVGVMSHELGHVLGMPDVPFNTKCPSGSCVMNQYLSSKFPKDFSTSCRAHFERYLLSQKPKCLLQAPIPTNIMTTPVCGNHLLEVGEDCDCGSPKECTNLCCEALTCKLKPGTDCGGDAPNHTTE
MCF7; [3]
  percentage of EdU-negative: 25.9 ± 0.54%
MCF7; protein concentration 0.225 µM
  percentage of EdU-negative: 27.7 ± 1.7%
hTERT-HMEC; [3]
  percentage of EdU-negative: 4.82 ± 0.43%
hTERT-HMEC; protein concentration 0.225 µM
  percentage of EdU-negative: 12.07 ± 0.12%

## MGTSPSSSTALASCSRIARRATATMIAGSLLLLGFLSTTTAQPEQKASNLIGTYRHVDRATGQVLTCDKCPAGTYVSEHCTNTSLRVCSSCPVGTFTRHENGIEKCHDCSQPCPWPMIEKLPCAALTDRECTCPPGMFQSNATCAPHTVCPVGWGVRKKGTETEDVRCKQCARGTFSDVPSSVMKCKAYTDCLSQNLVVIKPGTKETDNVCGTLPSFSSSTSPSPGTAIFPRPEHMETHEVPSSTYVPKGMNSTESNSSASVRPKVLSSIQEGTVPDNTSSARGKEDVNKTLPNLQVVNHQQGPHHRHILKLLPSMEATGGEKSSTPIKGPKRGHPRQNLHKHFDINEHLPWMIVLFLLLVLVVIVVCSIRKSSRTLKKGPRQDPSAIVEKAGLKKSMTPTQNREKWIYYCNGHGIDILKLVAAQVGSQWKDIYQFLCNASEREVAAFSNGYTADHERAYAALQHWTIRGPEASLAQLISALRQHRRNDVVEKIRGLMEDTTQLETDKLALPMSPSPLSPSPIPSPNAKLENSALLTVEPSPQDKNKGFFVDESEPLLRCDSTSSGSSALSRNGSFITKEKKDTVLRQVRLDPCDLQPIFDDMLHFLNPEELRVIEEIPQAEDKLDRLFEIIGVKSQEASQTLLDSVYSHLPDLL
MCF7; [3]
  percentage of EdU-negative: 27.8 ± 0.67%
MCF7; protein concentration 0.225 µM
  percentage of EdU-negative: 25.7 ± 4.1%
hTERT-HMEC; [3]
  percentage of EdU-negative: 4.84 ± 0.51%
hTERT-HMEC; protein concentration 0.225 µM
  percentage of EdU-negative: 5.355 ± 0.035%
